According to US20260152568A1 (NECTIN THERAPEUTICS, published 2026):
Numbering of substitutions follows the chain as printed. Numbers in names are those of the source.

B1: humanized 5B9 variant VH2/VK3 (antibody, V domains shown)
VH: QVQLVQSGAEVKKPGASVKISCKATGYTFSNYWIEWIKQAPGQGLEWIGEIFPGSGRINFNEKFKGRATFTADTSIDTTYMELSRLRSDDTAVYYCARTKIYGNSFDYWGQGTLVTVSS
VL: DIQMTQSPSSLSASVGDRVTITCRASQDVGTAVVWYQQKPGKAPKLLIYWASSRHEGVPSRFSGSGSGTDFTLTISSLQPEDFATYFCQQYSRYPLTFGQGTKLEIK
B2: humanized 5B9 variant VH3/VK3 (antibody, V domains shown)
VH: B1 VH with I20V, A68V, D77S
VL: B1 VL
B3: humanized 5B9 variant VH5/VK3 (antibody, V domains shown)
VH: B1 VH with I20V, I37V, K38R, I48M, A68V, D77S, T79A
VL: B1 VL
B4: humanized 5B9 variant VH5/VK2 (antibody, V domains shown)
VH: B1 VH with I20V, I37V, K38R, I48M, A68V, D77S, T79A
VL: B1 VL with R24K, S60D, T85D
B5: humanized 5B9 variant VH4/VK3 (antibody, V domains shown)
VH: B1 VH with I20V, I37V, K38R, A68V, D77S
VL: B1 VL
B6: chimeric 5B9 N56E variant, IgG4(S241P) N56E_VH0/VK0 (antibody, name in Kabat numbering, V domains shown)
VH: QVQLQQSGAELMKPGASVKISCKATGYTFSNYWIEWIKQRPGHGLEWIGEIFPGSGRINFNEKFKGKATFTADTSSDTTYMQLSSLTSADSAVYYCARTKIYGNSFDYWGQGTTLTVSP
VL: DIMMTQSHKFMSTSVGDRVNITCKASQDVGTAVVWYQQKPGQSPKLLIYWASSRHEGVPDRFTGSGSGTDFTLTISNVQSEDLSDYFCQQYSRYPLTFGAGTKLELK
notes: Human IgG4 (S241P) constant region; also called chimeric N56E mutated parental antibody
B7: chimeric anti-PVR antibody 5B9 wild type, IgG4 (S241P), VH0/VK0 (antibody, V domains shown)
VH: B6 VH
VL: B6 VL with E56N
notes: Mouse/human chimeric antibody with human IgG4 (S241P) constant region; also called WT; parental N56 variant (VH0VK0)
B8: VH0/Vκ0 Ser56 (antibody, V domains shown)
VH: B6 VH
VL: B6 VL with E56S
notes: chimeric 5B9 N56 substitution variant; also called N56S
B9: VH0/Vκ0 Thr56 (antibody, V domains shown)
VH: B6 VH
VL: B6 VL with E56T
notes: chimeric 5B9 N56 substitution variant; also called N56T
B10: chimeric 5B9 N56D variant, IgG4 (S241P) (antibody, name in Kabat numbering, V domains shown)
VH: B6 VH
VL: B6 VL with E56D
notes: Human IgG4 (S241P) constant region
B11: VH0/Vκ0 Ala56 (antibody, V domains shown)
VH: B6 VH
VL: B6 VL with E56A
notes: chimeric 5B9 N56 substitution variant; also called N56A
B12: VH0/Vκ0 Pro56 (antibody, V domains shown)
VH: B6 VH
VL: B6 VL with E56P
notes: chimeric 5B9 N56 substitution variant; also called N56P

target: T1, human PVR (SPR of the humanized variants, Example 5) (human, UniProt P15151 21-343); assay: SPR; relative to N56E VH0/Vκ0
T1 sequence: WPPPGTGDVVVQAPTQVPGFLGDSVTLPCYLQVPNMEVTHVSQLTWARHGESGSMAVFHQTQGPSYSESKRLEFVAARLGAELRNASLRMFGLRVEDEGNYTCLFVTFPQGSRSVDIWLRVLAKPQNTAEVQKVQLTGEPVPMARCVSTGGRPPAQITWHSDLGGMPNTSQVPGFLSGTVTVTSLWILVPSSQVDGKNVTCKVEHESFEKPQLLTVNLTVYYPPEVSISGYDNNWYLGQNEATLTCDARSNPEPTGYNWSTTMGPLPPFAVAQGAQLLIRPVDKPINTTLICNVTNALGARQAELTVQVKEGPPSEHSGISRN

| Binder | Relative KD |
| --- | --- |
| B1 | 0.93 |
| B2 | 0.98 |
| B3 | 1.34 |
| B4 | 1.03 |
| B5 | 0.92 |
| B6 | 1 |

target: human poliovirus receptor (PVR, CD155) expressed on cells (human) (UniProt P15151); assay: flow cytometry, binding to PVR-expressing HEK 293 cells

| Binder | EC50 [nM] |
| --- | --- |
| B1 | 0.6 |
| B2 | 0.53 |
| B3 | 0.57 |
| B4 | 0.64 |
| B5 | 0.59 |
| B6 | 0.79 |

target: human poliovirus receptor (PVR, CD155) expressed on cells (human) (UniProt P15151); assay: flow cytometry, binding to PVR-expressing HEK 293 cells; relative to N56E VH0/Vκ0

| Binder | Relative EC50 |
| --- | --- |
| B1 | 0.76 |
| B2 | 0.68 |
| B3 | 0.72 |
| B4 | 0.82 |
| B5 | 0.75 |

target: T1, human PVR (SPR of the humanized …); assay: SPR

| Binder | Kd [nM] |
| --- | --- |
| B1 | 5.14 |
| B2 | 5.42 |
| B3 | 7.41 |
| B4 | 5.68 |
| B5 | 5.11 |
| B6 | 5.54 |

target: T2, PVR conjugated to Histidine tag (PVR-HIS, Sino Cat. no. 10109-H08H) (Homo sapiens (Human), UniProt P15151 21-343); assay: SPR (Biacore T200); KD divided by the KD of VH0/Vκ0 WT
T2 construct: Bought reagent; also called PVR-HIS tagged
T2 sequence: T1 sequence
Experimental: FIGS. 1A-1B. Affinity and competition assays of N56 substitutions. FIG. 1A. […] Biacore assay showing relative and absolute affinity of the N56 substitutions (hIgG4 variants) to PVR-HIS tagged (Sino Cat. no. 10109-H08H). Affinity shift of >25% were considered significant.
(§1) Seven chimeric variants were generated by introducing a point mutation at residue asparagine N56. […] Binding was tested for the analyte PVR conjugated to Histidine tag (PVR-HIS, Sino Cat. no. 10109-H08H). Dilution range: Five point two-fold dilution from 50 nM to 3.125 nM. Conditions used: Instrument: Biacore T200 (serial no. 1909913) running Biacore T200 Evaluation Software V2.0.1. Running buffer: HBS-P+, 300 mM NaCl, 1 mg/ml BSA. Flow rate: […]. Association: 350 s, Dissociation: 800 s. Regeneration: 10 mM glycine pH 1.5. Analysis: 1:1 binding.

| Binder | Relative KD |
| --- | --- |
| B7 | 1 |
| B8 | 1.05 |
| B6 | 0.69 |
| B9 | 0.86 |
| B10 | 0.64 |
| B11 | 0.89 |
| B12 | 1.48 |

target: T3, chlorocebus (African green monkey) PVR expressed on Vero cells (chlorocebus (African green monkey), UniProt P32506 21-417); assay: flow cytometry, 10 ug/ml antibody on Vero cells; MFI divided by the MFI of K0
T3 construct: whole, on cells; also called chlorocebus PVR
T3 sequence (looked up): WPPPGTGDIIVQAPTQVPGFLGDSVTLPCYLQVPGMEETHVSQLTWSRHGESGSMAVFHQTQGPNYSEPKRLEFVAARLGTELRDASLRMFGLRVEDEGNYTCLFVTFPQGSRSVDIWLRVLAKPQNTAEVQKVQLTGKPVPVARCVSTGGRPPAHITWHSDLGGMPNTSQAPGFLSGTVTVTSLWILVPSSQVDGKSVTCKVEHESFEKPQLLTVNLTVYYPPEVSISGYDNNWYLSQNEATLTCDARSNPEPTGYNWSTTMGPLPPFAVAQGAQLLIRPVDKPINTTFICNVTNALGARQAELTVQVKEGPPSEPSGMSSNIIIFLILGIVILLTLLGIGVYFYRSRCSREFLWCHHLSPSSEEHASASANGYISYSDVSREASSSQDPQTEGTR
Experimental: FIGS. 2A-2B. […] To assess maximal binding, saturating dose (10 ug/ml) of the N56 variant monoclonal antibodies (shown at the X axis) were used to stain PVR-expressing cells, and mean fluorescence intensity (MFI) values were determined by FACS analysis. […] (FIG. 2A) NCI-H1975 (human lung) cells and (FIG. 2B) Vero (African green monkey kidney) cells. Affinity shifts of >25% were considered significant.
The binding of the N56 substitution variant antibodies to cell bound PVR of human (protein id: Q92692) and chlorocebus (African green monkey, protein id: UniProtKB—P32506) was examined. FIG. 2A depicts the relative binding of all variants, which were added in saturating concentration (10 ug/ml), to NCI-H1975 cells expressing human PVR. FIG. 2B depicts the relative binding of all variants, which were added in saturating concentration (10 ug/ml), to Vero cells expressing chlorocebus PVR. […] Cell binding of the Abs was analyzed by FACS.

| Binder | Fold change MFI |
| --- | --- |
| B7 | 1 |
| B8 | 0.73 |
| B6 | 1.31 |
| B9 | 1.19 |
| B10 | 1.27 |
| B11 | 1.2 |

target: T2, PVR conjugated to Histidine tag …; assay: SPR (Biacore T200), antibody captured on Protein A chip, PVR-HIS as analyte, 1:1 binding
Experimental: as §1

| Binder | Kd [nM] | koff [s⁻¹] | kon [M⁻¹ s⁻¹] |
| --- | --- | --- | --- |
| B7 | 5.12 | 0.000715 | 140000 |
| B8 | 4.61 | 0.000701 | 152000 |
| B6 | 3.55 | 0.000653 | 184000 |
| B9 | 4.4 | 0.000688 | 156000 |
| B10 | 3.27 | 0.000637 | 195000 |
| B11 | 4.57 | 0.000701 | 154000 |
| B12 | 7.58 | 0.00105 | 138000 |
